Reference: patent publication US20200317768A1 (published 2020)
Numbering of substitutions follows the chain as printed.

T1: human FcγRIIaH extracellular domain, C-terminal His-tag (human, UniProt P12318 34-217)
T1 construct: also called human FcγRIIa (type H); FcgRIIaH; not shown: His-tag added to C-terminus
T1 sequence: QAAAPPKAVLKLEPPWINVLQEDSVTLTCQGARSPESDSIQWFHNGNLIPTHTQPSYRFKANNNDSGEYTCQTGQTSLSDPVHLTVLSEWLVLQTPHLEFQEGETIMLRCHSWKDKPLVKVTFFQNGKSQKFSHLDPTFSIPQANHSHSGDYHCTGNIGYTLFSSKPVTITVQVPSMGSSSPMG

T2: human FcγRIIaR extracellular domain, C-terminal His-tag (human, UniProt P12318 34-217)
T2 construct: also called human FcγRIIa (type R); FcgRIIaR; not shown: His-tag added to C-terminus
T2 chain: T1 sequence with H134R

T3: cynomolgus monkey FcγRIIb extracellular domain, C-terminal His-tag (cynomolgus monkey)
T3 construct: also called cyno FcγRIIb; cynoFcγRIIb; not shown: His-tag added to C-terminus
T3 chain: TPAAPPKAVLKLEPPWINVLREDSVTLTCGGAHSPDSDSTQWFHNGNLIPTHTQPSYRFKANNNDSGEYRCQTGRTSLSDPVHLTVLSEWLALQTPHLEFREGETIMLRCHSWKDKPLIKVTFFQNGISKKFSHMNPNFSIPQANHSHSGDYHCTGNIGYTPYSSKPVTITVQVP

T4: cynomolgus monkey FcγRIIa1 extracellular domain, C-terminal His-tag (cynomolgus monkey)
T4 construct: also called cyno FcγRIIa1; cynoFcgRIIa1; not shown: His-tag added to C-terminus
T4 chain: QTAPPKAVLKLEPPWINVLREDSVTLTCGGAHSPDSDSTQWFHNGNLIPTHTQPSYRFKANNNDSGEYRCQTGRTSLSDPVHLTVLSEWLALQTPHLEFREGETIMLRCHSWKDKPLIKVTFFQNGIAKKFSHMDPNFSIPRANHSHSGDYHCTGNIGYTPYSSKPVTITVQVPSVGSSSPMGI

T5: cynomolgus monkey FcγRIIa3 extracellular domain, C-terminal His-tag (cynomolgus monkey)
T5 construct: also called cyno FcγRIIa3; cynoFcgRIIa3; not shown: His-tag added to C-terminus
T5 chain: T4 chain with P95T, T121A, A128S, H133P, D135N

T6: cynomolgus monkey FcγRIIa2 extracellular domain, C-terminal His-tag (cynomolgus monkey)
T6 construct: also called cyno FcγRIIa2; cynoFcgRIIa2; not shown: His-tag added to C-terminus
T6 chain: T4 chain with P95T, T121A, I127K, A128S, K130N, D135N, R142Q

T7: human FcγRIIb extracellular domain, C-terminal His-tag (human, UniProt P31994 43-217)
T7 construct: also called FcgRIIb (human); not shown: His-tag added to C-terminus
T7 sequence: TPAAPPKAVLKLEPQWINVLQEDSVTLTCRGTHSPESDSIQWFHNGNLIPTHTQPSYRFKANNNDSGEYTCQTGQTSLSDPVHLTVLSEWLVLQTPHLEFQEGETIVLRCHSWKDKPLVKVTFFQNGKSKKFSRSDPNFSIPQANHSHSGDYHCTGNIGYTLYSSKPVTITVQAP

T8: cynomolgus monkey FcγRIIa3 extracellular domain with C-terminal His-tag (cynomolgus monkey)
T8 construct: also called cyno FcgRIIa3; cynoFcγRIIa3
T8 chain: T4 chain with P95T, T121A, A128S, H133P, D135N

T9: cynomolgus monkey FcγRIIb extracellular domain with C-terminal His-tag (cynomolgus monkey)
T9 construct: also called cyno FcgRIIb; cynoFcγRIIb
T9 chain: T3 chain

T10: human FcγRIIaH extracellular domain with C-terminal His-tag (human, UniProt P12318 34-217)
T10 construct: also called human FcgRIIaH; FcγRIIa (type H)
T10 sequence: T1 sequence

T11: human FcγRIIaR extracellular domain with C-terminal His-tag (human, UniProt P12318 34-217)
T11 construct: also called human FcgRIIaR; FcγRIIa (type R)
T11 chain: T1 sequence with H134R

T12: cynomolgus monkey FcγRIIa2 extracellular domain with C-terminal His-tag (cynomolgus monkey)
T12 construct: also called cyno FcgRIIa2; cynoFcγRIIa2
T12 chain: T4 chain with P95T, T121A, I127K, A128S, K130N, D135N, R142Q

T13: human FcγRIIb extracellular domain with C-terminal His-tag (human, UniProt P31994 43-217)
T13 construct: also called human FcgRIIb
T13 sequence: T7 sequence

T14: cynomolgus monkey FcγRIIa1 extracellular domain with C-terminal His-tag (cynomolgus monkey)
T14 construct: also called cyno FcgRIIa1; cynoFcγRIIa1
T14 chain: T4 chain

T15: cynomolgus monkey FcγRIIIaS extracellular domain with C-terminal His-tag (cynomolgus monkey, UniProt Q8SPW2 21-206 at identity 1.00))
T15 construct: also called cyno FcgRIIIaS; cynoFcγRIIIaS
T15 chain: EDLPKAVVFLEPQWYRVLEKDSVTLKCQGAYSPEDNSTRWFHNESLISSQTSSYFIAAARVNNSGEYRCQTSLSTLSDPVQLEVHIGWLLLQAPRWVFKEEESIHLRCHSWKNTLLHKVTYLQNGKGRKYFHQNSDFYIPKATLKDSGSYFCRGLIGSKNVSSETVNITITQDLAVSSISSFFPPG

B1: M103205H795-MY325/M103202L889-SK1 (antibody, human IgG1, kappa)
heavy: QVTLKESGPVLVKPTETLTLTCTVSGIDLSHDDISWVRQAPGKGLEWVGIISYAGSTYYASWAKGRLTISKDTSKNQVVLTMTNMDPVDTATYYCARGVPAYSHGGDLWGQGTLVTVSSASTKGPSVFPLAPSSKSTSGGTAALGCLVKDYFPEPVTVSWNSGALTSGVHTFPAVLQSSGLYSLSSVVTVPSSSLGTQTYICNVNHKPSNTKVDKKVEPKSCDKTHTCPPCPAPELLDGPSVFLFPPKPKDTLMISRTPEVTCVVVDVSDEDPEVKFNWYVDGVEVHNAKTKPREEQYNSTYRVVSVLTVLHQDWLNGKEYKCKVSNKALPKPIEKTISKAKGQPREPQVYTLPPSREEMTKNQVSLTCLVKGFYPSDIAVEWESNGQPENNYKTTPPVLDSDGSFFLYSKLTVDKSRWQQGNVFSCSVMHEALHNHYTQKSLSLSP
light: DIVMTQSPATLSLSPGERATLSCTSSQSVYHANWLSWFQQKPGQPPKLLIYWASTLAYGVPSRFSGSGSGTDFTLTISSLQPEDAATYYCAGGYGGGRYAFGQGTKVEIKRTVAAPSVFIFPPSDEQLKSGTASVVCLLNNFYPREAKVQWKVDNALQSGNSQESVTEQDSKDSTYSLSSTLTLSKADYEKHKVYACEVTHQGLSSPVTKSFNRGEC
B2: M103205H795-MY536/M103202L889-SK1 (antibody, human IgG1, kappa)
heavy: B1 heavy with A233G, L236W, D238T, S241V
light: B1 light
notes: Substitutions introduced into M103205H795-SG1, expressed with M103202L889-SK1 as light chain; EU numbering
B3: M103205H795-MY534/M103202L889-SK1 (antibody, human IgG1, kappa)
heavy: B1 heavy with D238T, S241V, Q297L
light: B1 light
notes: as for B2

What follows are binders tested against T1, human FcγRIIaH extracellular domain, … (assay: SPR (Biacore), antibody captured, FcgR analyte, 25 C).
Procedure: (§1) The kinetic analysis of interactions between these antibodies and FcγR was carried out using BIACORE® T200 or BIACORE® 4000 (GE Healthcare). HBS-EP+ (GE Healthcare) was used as the running buffer, and the measurement temperature was set to 25° C. A chip produced by immobilizing Protein A. Protein A/G or mouse anti-human IgG kappa light chain (BD Biosciences) onto a Series S Sensor Chip CM4 or CM5 (GE Healthcare) by the amine-coupling method was used. […] After the measurement, the antibody captured on the chip was washed off by allowing reaction with 10 mM glycine-HCl, pH1.5 and 25 mM NaOH so that the chip was regenerated and used repeatedly. The sensorgrams obtained as measurement results were analyzed by the 1:1 Langmuir binding model using the BIACORE® Evaluation Software to calculate the binding rate constant ka (L/mol/s) and dissociation rate constant kd (l/s), and the dissociation constant KD (mol/L) was calculated from these values. […] Regarding such interactions, KD values were calculated using the following 1:1 binding model described in BIACORE® T100 Software Handbook BR1006-48 Edition AE.
(§2) The behavior of interacting molecules according to the 1:1 binding model on BIACORE® can be described by Equation 1: Req=C·R max/(KD+C)+RI, wherein, Req is a plot of steady-state binding levels to analyte concentration. C is concentration, RI is bulk refractive index contribution in the sample, and Rmax is analyte binding capacity of the surface. When this equation is rearranged, KD can be expressed as Equation 2: KD=C·Rmax/(Req−RI)−C. KD can be calculated by substituting the values of Rmax, RI, and C into Equation 1 or Equation 2. From the current measurement conditions, RI=0, C=2 μmol/L can be used.

| Kd | Binder |
| --- | --- |
| 0.51 µM | B1 |

Biological target: T2, human FcγRIIaR extracellular domain, …
Test: as above
Procedure: as §1, §2

| Kd | Binder |
| --- | --- |
| 0.3 µM | B1 |

Biological target: T3, cynomolgus monkey FcγRIIb extracellular …
Test: as above
Procedure: as §1, §2

| Kd | Binder |
| --- | --- |
| 0.95 µM | B1 |

Each binder was assayed against T16, cynomolgus monkey FcγRIIIaS extracellular domain, C-terminal His-tag (cynomolgus monkey, UniProt A3RFZ7 21-206 (rhesus entry)) in the same assay as above.
T16 construct: also called cyno FcγRIIIaS; cynoFcγRIIIaS; not shown: His-tag added to C-terminus
Procedure: as §1, §2

| Kd | Binder |
| --- | --- |
| 4 µM | B1 |

Biological target: T4, cynomolgus monkey FcγRIIa1 …
Test: as above
Procedure: as §1, §2

| Kd | Binder |
| --- | --- |
| 4 µM | B1 |

Biological target: T5, cynomolgus monkey FcγRIIa3 …
Test: as above
Procedure: as §1, §2

| Kd | Binder |
| --- | --- |
| 5.8 µM | B1 |

Biological target: T6, cynomolgus monkey FcγRIIa2 …
Test: as above
Procedure: as §1, §2

| Kd | Binder |
| --- | --- |
| 4.4 µM | B1 |

Each binder was assayed against T7, human FcγRIIb extracellular domain, … in the same assay as above.
Procedure: as §1, §2

| Kd | Binder |
| --- | --- |
| 0.26 µM | B1 |

Each binder was assayed against T17, human FcγRIIIaV extracellular domain, C-terminal His-tag (human, UniProt P08637 17-208) in the same assay as above.
T17 construct: also called FcgRIIIaV; not shown: His-tag added to C-terminus
Procedure: as §1, §2

T17 sequence (P08637 17-208 F176V): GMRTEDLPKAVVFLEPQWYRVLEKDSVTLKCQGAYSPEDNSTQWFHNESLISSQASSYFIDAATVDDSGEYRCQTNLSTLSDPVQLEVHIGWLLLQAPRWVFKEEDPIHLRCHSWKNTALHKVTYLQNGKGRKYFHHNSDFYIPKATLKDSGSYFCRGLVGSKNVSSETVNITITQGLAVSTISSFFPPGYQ

| Kd | Binder |
| --- | --- |
| 8.1 µM | B1 |

Biological target: T8, cynomolgus monkey FcγRIIa3 …
Test: SPR (BIACORE), antibody captured, FcgR analyte
Procedure: as §1, §2

| Kd | Binder |
| --- | --- |
| 0.98 µM | B2 |
| 1.2 µM | B3 |

Biological target: T9, cynomolgus monkey FcγRIIb extracellular …
Test: SPR (BIACORE), antibody captured, FcgR analyte
Procedure: as §1, §2

| Kd | Binder |
| --- | --- |
| 0.4 µM | B2 |
| 0.42 µM | B3 |

The binders below were run against T10, human FcγRIIaH extracellular domain … (assay: SPR (BIACORE), antibody captured, FcgR analyte).
Procedure: as §1, §2

| Kd | Binder |
| --- | --- |
| 0.29 µM | B2 |
| 0.17 µM | B3 |

Biological target: T11, human FcγRIIaR extracellular domain …
Test: SPR (BIACORE), antibody captured, FcgR analyte
Procedure: as §1, §2

| Kd | Binder |
| --- | --- |
| 0.22 µM | B2 |
| 0.19 µM | B3 |

Biological target: T12, cynomolgus monkey FcγRIIa2 …
Test: SPR (BIACORE), antibody captured, FcgR analyte
Procedure: as §1, §2

| Kd | Binder |
| --- | --- |
| 1.1 µM | B2 |
| 1.3 µM | B3 |

What follows are binders tested against T13, human FcγRIIb extracellular domain with … (assay: SPR (BIACORE), antibody captured, FcgR analyte).
Procedure: as §1, §2

| Kd | Binder |
| --- | --- |
| 0.99 µM | B2 |
| 0.12 µM | B3 |

Biological target: T14, cynomolgus monkey FcγRIIa1 …
Test: SPR (BIACORE), antibody captured, FcgR analyte
Procedure: as §1, §2

| Kd | Binder |
| --- | --- |
| 1.3 µM | B2 |
| 1.3 µM | B3 |

Biological target: T15, cynomolgus monkey FcγRIIIaS …
Test: SPR (BIACORE), antibody captured, FcgR analyte
Procedure: as §1, §2

| Kd | Binder |
| --- | --- |
| 1.6 µM | B2 |
| 1.7 µM | B3 |

What follows are binders tested against T18, human FcγRIIIaV extracellular domain with C-terminal His-tag (human, UniProt P08637 17-208) (assay: SPR (BIACORE), antibody captured, FcgR analyte).
T18 construct: also called human FcgRIIIaV
Procedure: as §1, §2

T18 sequence (P08637 17-208 F176V): as above

| Kd | Binder |
| --- | --- |
| 3.7 µM | B2 |
| 4.3 µM | B3 |
